From publication PMC8357123, “Modeling of DNA binding to the condensin hinge domain using molecular dynamics simulations guided by atomic force microscopy” (PLoS Computational Biology, 2021) come the findings set out here.

The experiment has as its target T1, Smc4 (S. cerevisiae (budding yeast), UniProt Q12267 1-1418).
T1 construct: Smc4, subunit of the budding yeast condensin complex; The holo-complex was purified over HisTrap and Strep-Tactin; also called condensin subunit Smc4
T1 sequence (looked up): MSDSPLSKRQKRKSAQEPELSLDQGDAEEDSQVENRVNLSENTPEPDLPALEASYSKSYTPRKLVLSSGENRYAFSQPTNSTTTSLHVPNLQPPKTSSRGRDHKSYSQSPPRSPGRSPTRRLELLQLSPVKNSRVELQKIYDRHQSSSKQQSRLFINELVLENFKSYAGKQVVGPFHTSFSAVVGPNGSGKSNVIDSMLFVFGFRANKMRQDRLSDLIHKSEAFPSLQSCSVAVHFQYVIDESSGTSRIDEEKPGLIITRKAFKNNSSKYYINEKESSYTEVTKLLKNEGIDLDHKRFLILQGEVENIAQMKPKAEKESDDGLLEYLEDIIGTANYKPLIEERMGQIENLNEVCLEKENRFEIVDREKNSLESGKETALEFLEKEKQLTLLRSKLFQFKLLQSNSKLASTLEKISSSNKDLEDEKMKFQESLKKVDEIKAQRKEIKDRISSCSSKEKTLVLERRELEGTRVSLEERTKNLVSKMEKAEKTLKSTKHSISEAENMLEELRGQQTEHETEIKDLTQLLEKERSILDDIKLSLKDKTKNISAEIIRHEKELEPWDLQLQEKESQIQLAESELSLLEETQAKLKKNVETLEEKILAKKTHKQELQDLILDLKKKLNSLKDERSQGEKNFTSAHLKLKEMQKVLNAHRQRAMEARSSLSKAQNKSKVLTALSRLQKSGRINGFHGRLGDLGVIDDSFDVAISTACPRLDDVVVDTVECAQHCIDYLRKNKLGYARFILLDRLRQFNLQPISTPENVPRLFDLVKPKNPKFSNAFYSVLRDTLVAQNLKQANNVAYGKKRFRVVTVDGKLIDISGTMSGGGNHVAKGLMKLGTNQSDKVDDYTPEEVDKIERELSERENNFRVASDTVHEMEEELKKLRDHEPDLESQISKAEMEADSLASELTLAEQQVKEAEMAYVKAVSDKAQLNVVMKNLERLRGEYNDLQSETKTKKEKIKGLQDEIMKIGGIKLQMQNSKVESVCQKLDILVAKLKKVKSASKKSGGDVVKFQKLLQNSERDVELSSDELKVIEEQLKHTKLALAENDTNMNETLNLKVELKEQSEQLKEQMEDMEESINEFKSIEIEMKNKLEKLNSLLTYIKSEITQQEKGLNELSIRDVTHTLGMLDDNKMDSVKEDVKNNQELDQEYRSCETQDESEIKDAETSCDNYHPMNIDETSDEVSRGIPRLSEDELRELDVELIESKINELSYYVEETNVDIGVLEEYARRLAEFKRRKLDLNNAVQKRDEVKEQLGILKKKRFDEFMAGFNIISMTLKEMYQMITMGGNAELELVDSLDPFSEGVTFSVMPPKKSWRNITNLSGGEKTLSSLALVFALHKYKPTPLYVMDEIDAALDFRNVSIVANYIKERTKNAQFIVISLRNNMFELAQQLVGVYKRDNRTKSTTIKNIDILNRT
Kind of experiment: high-speed atomic force microscopy (HS-AFM); 1 nM purified condensin holo-complex on bare mica in 40 mM Tris-HCl pH7.5, 125 mM KCl, 10 mM MgCl2, 1 mM DTT, 4 mM ATP; room temperature; 150 ms/frame; 36 molecules observed. To be noted: both partners purified.

B1: Smc2 (natural protein, S. cerevisiae (budding yeast), UniProt P38989 1-1170, looked up)
chain: MKVEELIIDGFKSYATRTVITDWDPQFNAITGLNGSGKSNILDAICFVLGIASMSTVRASSLQDLIYKRGQAGVTKASVTIVFDNTDKSNSPIGFTNSPQISVTRQVVLGGTSKYLINGHRAPQQSVLQLFQSVQLNINNPNFLIMQGKITKVLNMKPSEILSLIEEAAGTKMFEDRREKAERTMSKKETKLQENRTLLTEEIEPKLEKLRNEKRMFLEFQSTQTDLEKTERIVVSYEYYNIKHKHTSIRETLENGETRMKMLNEFVKKTSEEIDSLNEDVEEIKLQKEKELHKEGTISKLENKENGLLNEISRLKTSLSIKVENLNDTTEKSKALESEIASSSAKLIEKKSAYANTEKDYKMVQEQLSKQRDLYKRKEELVSTLTTGISSTGAADGGYNAQLAKAKTELNEVSLAIKKSSMKMELLKKELLTIEPKLKEATKDNELNVKHVKQCQETCDKLRARLVEYGFDPSRIKDLKQREDKLKSHYYQTCKNSEYLKRRVTNLEFNYTKPYPNFEASFVHGVVGQLFQIDNDNIRYATALQTCAGGRLFNVVVQDSQTATQLLERGRLRKRVTIIPLDKIYTRPISSQVLDLAKKIAPGKVELAINLIRFDESITKAMEFIFGNSLICEDPETAKKITFHPKIRARSITLQGDVYDPEGTLSGGSRNTSESLLVDIQKYNQIQKQIETIQADLNHVTEELQTQYATSQKTKTIQSDLNLSLHKLDLAKRNLDANPSSQIIARNEEILRDIGECENEIKTKQMSLKKCQEEVSTIEKDMKEYDSDKGSKLNELKKELKLLAKELEEQESESERKYDLFQNLELETEQLSSELDSNKTLLHNHLKSIESLKLENSDLEGKIRGVEDDLVTVQTELNEEKKRLMDIDDELNELETLIKKKQDEKKSSELELQKLVHDLNKYKSNTNNMEKIIEDLRQKHEFLEDFDLVRNIVKQNEGIDLDTYRERSKQLNEKFQELRKKVNPNIMNMIENVEKKEAALKTMIKTIEKDKMKIQETISKLNEYKRETLVKTWEKVTLDFGNIFADLLPNSFAKLVPCEGKDVTQGLEVKVKLGNIWKESLIELSGGQRSLIALSLIMALLQFRPAPMYILDEVDAALDLSHTQNIGHLIKTRFKGSQFIVVSLKEGMFANANRVFRTRFQDGTSVVSIM
notes: Smc2, subunit of the budding yeast condensin complex; The holo-complex was purified over HisTrap and Strep-Tactin; also called condensin subunit Smc2
Regarding B1, the binding result is reported as “binds”.
